From patent US20250230251A1 (Bristol-Myers Squibb, published 2025)

Molecular target: T1, huIL-18Rβ-HisAvi (human, UniProt O95256 20-356, biotinylated in the Octet blocking assay)
T1 construct: Soluble analyte in all SPR runs; captured on streptavidin sensors in the Octet assay; also called human IL-18Rβ; human IL-18Rβ-Avi-His
T1 sequence: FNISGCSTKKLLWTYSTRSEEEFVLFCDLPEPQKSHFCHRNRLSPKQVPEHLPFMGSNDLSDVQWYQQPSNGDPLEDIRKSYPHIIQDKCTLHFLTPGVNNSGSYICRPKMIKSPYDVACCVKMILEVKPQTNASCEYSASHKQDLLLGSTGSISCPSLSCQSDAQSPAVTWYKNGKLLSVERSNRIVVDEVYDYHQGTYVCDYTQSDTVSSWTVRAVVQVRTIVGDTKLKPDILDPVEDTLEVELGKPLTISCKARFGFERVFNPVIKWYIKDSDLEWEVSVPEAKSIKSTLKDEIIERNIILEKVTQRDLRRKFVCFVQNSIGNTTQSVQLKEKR
Test: SPR T200, pH 7; control

- Kd: 0.2 nM
- koff: 7e-05 s⁻¹
- kon: 350000 M⁻¹ s⁻¹
B1: P21 (antibody, human IgG1, kappa, V domains shown)
VH: QVQLQQSGPGLVKPSETLSLTCTVSGGSISNYYWTWIRQPPGKGLEWIGYISDSGSTNYNPSLKSRVTISVDTSKNQFSLKLSSVTAADTAVYYCARETIVVRGFYFYVMDVWGQGTTVTVSS
VL: AIQLTQSPSSLSASVGDRVTITCRASQGISSALAWYQQRPGKAPKLLIYDASNWESGVPSRFSGSGSGTDFTLTISSLQPEDFATYYCQQFNSYPWTFGQGTKVEIKR
notes: Human IgG
